Where a chain is given by its changes, count along the chain named.
T1: HuCDCP1-C (Homo sapiens, UniProt Q9H5V8)
T1 construct: made in house; host or cells: HEK-293T
T1 sequence (Q9H5V8 30-667): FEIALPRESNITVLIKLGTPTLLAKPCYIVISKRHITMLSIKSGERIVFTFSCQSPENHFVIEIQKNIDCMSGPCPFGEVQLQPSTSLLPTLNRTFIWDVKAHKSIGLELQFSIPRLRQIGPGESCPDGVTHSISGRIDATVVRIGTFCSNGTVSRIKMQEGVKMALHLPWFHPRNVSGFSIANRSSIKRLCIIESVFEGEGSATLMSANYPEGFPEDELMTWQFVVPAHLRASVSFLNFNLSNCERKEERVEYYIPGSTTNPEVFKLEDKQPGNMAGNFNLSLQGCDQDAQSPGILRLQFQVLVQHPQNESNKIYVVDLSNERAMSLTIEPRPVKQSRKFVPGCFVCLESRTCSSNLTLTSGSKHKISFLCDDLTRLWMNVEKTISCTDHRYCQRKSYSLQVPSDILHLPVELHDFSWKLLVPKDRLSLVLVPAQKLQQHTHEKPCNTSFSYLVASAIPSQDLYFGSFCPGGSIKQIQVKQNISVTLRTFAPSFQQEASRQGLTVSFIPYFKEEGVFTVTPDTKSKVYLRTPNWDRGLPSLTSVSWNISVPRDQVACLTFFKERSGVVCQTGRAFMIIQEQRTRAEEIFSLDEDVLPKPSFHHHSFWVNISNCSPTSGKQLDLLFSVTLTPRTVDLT

B1: 1CP-066: anti-CDCP1 murine monoclonal antibody (hybridoma); VH SEQ ID NO: 268, VL SEQ ID NO: 318 (antibody, V domains shown)
VH: EVTLKESGPELKKPGETVKISCKASGYAFTKYGMNWVKQAPGKDLKFMGWINTYTGEATYADDFKGRFDFSLEASASTAFLRINNLKNEDTATYFCSRGDDYGTGGYVLFYWGQGTTVTVSS
VL: DIVMTQAAASLSVTVGETVTITCRASENIYNNLAWYQQQQGKSPQLLVYAATNLADGVPSRFSGSGSGTHYSLKINSLQSEDFGFYYCQHFWGTPPTFGGGTKLEIK
modifications: 1CP-066 heavy chain variable region; 1CP-066 light chain variable region
B2: 1CP-064: anti-CDCP1 murine monoclonal antibody (hybridoma); VH SEQ ID NO: 267, VL SEQ ID NO: 317 (antibody, V domains shown)
VH: EVKLVESGPGILQPSQTLSLTCSFSGFSLSTSGMGVGWIRQPSGKGLEWLAHIWWDDVKRYNPALKSRLTISKDTSSSQVFLKIASVDTADTATYYCARMGGKVPWFAYWGQGTTVTVSS
VL: DVVMTQTPASLAVSLGQRATISCRASESVDSYGNSFMHWYQQKPGQPPKLLIYLASNLESGVPARFSGSGSRTDFTLTIDPVEADDAATYYCQQNNEDPWTFGGGTKLEIK
modifications: 1CP-064 heavy chain variable region; 1CP-064 light chain variable region
B3: 12E6: anti-CDCP1 murine monoclonal antibody (hybridoma); VH SEQ ID NO: 255, VL SEQ ID NO: 305 (antibody, V domains shown)
VH: EVQLKESGPGILQPSQTLSLTCSFSGFSLSTSGMGVGWIRQPSGKGLEWLAHIWWDDVKLYNPALKSRLTISKETSNNQVFLKIASVDAADTATYYCARIDHGYGSNYWDFDVWGAGTTVTVSS
VL: DIVMTQAAPSVPVTPGGSVSISCRSTKSLLHSDGKTYLYWFLQRPGQSPQLLIYRMSNLASGVPDRFSGSGSGTAFTLRISRVEAEDVGVYYCMQHLEYPFTFGSGTKLEIK
modifications: 12E6 heavy chain variable region; 12E6 light chain variable region
B4: 1CP-069: anti-CDCP1 murine monoclonal antibody (hybridoma); VH SEQ ID NO: 266, VL SEQ ID NO: 316 (antibody, V domains shown)
VH: EVQLQQSGGGLVKPGGSLKLSCTASGFTFSVYGMSWVRQTPEKRLEWVATLSGGDNYTYYTDSVKGRFTISRDTAKNNLYLQMSSLRSEDTALYFCATEDGLIGTWGDYWGQGTTVTVSS
VL: DIVMTQAAFSNPVTLGTSASISCRSTKSLLHSNGITYLYWYLQKPGQSPQLLIYQMSNLASGVPDRFSSSGSGTDFTLRISRVEAEDVGVYYCAQNLELPFTFGGGTKLEIK
modifications: 1CP-069 heavy chain variable region; 1CP-069 light chain variable region
B5: 1CP-117: humanized anti-CDCP1 antibody produced by 8E5; VH SEQ ID NO: 348, VL SEQ ID NO: 358 (antibody, V domains shown)
VH: QVQLVQSGSELKKPGASVKVSCKASGYTLTDFSMHWVRQAPGQGLEWMGWINTETGAPTYADDFKGRFVLSLDTSVSTAYLQISSLKAEDTAVYYCSRGRDYDPHFDYWGQGTLVTVSS
VL: EIVLTQSPATLSLSPGERATLSCRASQSISDFLHWYQQKPGQSPRLLIKYASQSISGIPARFSGSGSGSDFTLTISSVEPEDFAVYYCQSAHSFPYTFGQGTKLEIK
modifications: humanized antibody 8E5 heavy chain variable region 01; humanized antibody 8E5 light chain variable region 02
B6: 1CP-121: humanized anti-CDCP1 antibody produced by 8E5; VH SEQ ID NO: 348, VL SEQ ID NO: 359 (antibody, V domains shown)
VH: B5 VH
VL: B5 VL with P40S
modifications: humanized antibody 8E5 heavy chain variable region 01; humanized antibody 8E5 light chain variable region 03
B7: 1CP-068: anti-CDCP1 murine monoclonal antibody (hybridoma); VH SEQ ID NO: 270, VL SEQ ID NO: 320 (antibody, V domains shown)
VH: EVQLKESGAELVRPGALVKLSCKASGFNIKDYYMYWVKQRPEQGLEWIGWIDPENGNTIYDPKLQGKARITADTSSNTAYLQLSSLTSEDTAVYYCAGRLYAMEYWGQGTTVTVSS
VL: DVVMTQTPALMSASPGEKVTMTCSASSSVSYMYWYQQKPRSSPKPWIYLTSNLASGVPARFSGSGSGTSYSLTISSMEAEDAATYYCQQWSSDPFTFGGGTKLEIK
modifications: 1CP-068 heavy chain variable region; 1CP-068 light chain variable region
B8: 1CP-065: anti-CDCP1 murine monoclonal antibody (hybridoma); VH SEQ ID NO: 269, VL SEQ ID NO: 319 (antibody, V domains shown)
VH: EVTLKESGAELVRPGALVKLSCKASGFNIKDYYMHWVKQRPEQGLEWIGWIDPENDNTIYDPKFQGKASITADTSSNTAYLQLSSLTSEDTAVYYCARFYGSYYYAMDYWGQGTTVTVSS
VL: DIVMTQSPKFMSTSVGDRVSITCKASQDVSTAVTWYQQKPGQSPKLLIYWASTRHTGVPDRFTGSGSGTDYTLTISSVQAEDLALYYCQQHYSTPYTFGGGTKLEIK
modifications: 1CP-065 heavy chain variable region; 1CP-065 light chain variable region

What was measured:
MDA-MB-231 cells [1] = test: Endocytosis capacity of murine monoclonal antibody (flow cytometry internalization); type: cell-based, human; conditions: antibody 1.5 μg/mL; for Internalization MDA-MB-231 (%) 2 h: MDA-MB-231, 2 h at 37° C.
Experimental: (§1) The endocytosis capacity of the antibody was detected for 0.5 to 2 hours. MDA-MB-231 and PC3 cells were subjected to digestion with 5 mM EDTA, and plated at 4×10^4 cells/well after cell counting. After adding an Fc blocker (Human TruStain FcX™, Biolegend, 422302) and blocking at room temperature for 10 mins, a test antibody (1.5 μg/mL) was added, and the mixture was incubated at 4° C. for 30 mins, centrifuged, and washed twice with PBS+2% FBS, then the cells were divided into four equal portions (labeled as 0 h, 0.5 h, 1 h, 2 h), cells labeled as 0.5 h, 1 h, 2 h time points were added to a cell culture medium at 200 µL/well, and cultured at 37° C. for 0.5 h, 1 h, 2 h, respectively. Cells at 0 h point were centrifuged to remove supernatant, a secondary antibody (PE anti-human IgG Fc Antibody, Biolegend, 410708) was added, and the mixture was incubated at 4° C. for 30 mins, centrifuged, and washed twice with PBS+2% FBS, and detection was performed using a flow cytometer. After incubation of cells labeled as 0.5 h, 1 h, and 2 h points at 37° C. was completed, a secondary antibody was added (in the same steps as those at 0 h point), Geo-MFI of the signal under the same voltage was collected as detection signal at 0 h, and antibody internalization rate was calculated according to the following equation: Internalization (%)=(Geo-MFI (0 h)-Geo-MFI (0.5, 1, 2 h))/Geo-MFI (0 h)×100%.

PC3 cells = test: as above; type: cell-based, human; conditions: antibody 1.5 μg/mL; for Internalization PC3 (%) 2 h: PC3, 2 h at 37° C.
Experimental: as §1

HuCDCP1-C = target: T1, HuCDCP1-C; test: Caterra affinity of humanized anti-CDCP1 antibodies; type: binding; conditions: HuCDCP1-C 2 μg/ml immobilized
Experimental: The humanized anti-CDCP1 antibodies obtained from Example 11 were subjected to gene cloning, constructed into pTT5 expression vector for a small amount of expression in CHO cells (Expi-CHOS: Gibco A29127), and purified with an Fc affinity column (AT Protein A Diamond Plus. No. AA402312). Antibody purity was analyzed by HPLC and determined by Nanodrop. High-throughput affinity assay was carried out for a small amount of antibodies by Caterra.

MDA-MB-231 cells [2] = test: Endocytosis capacity of humanized antibodies; type: cell-based, human; conditions: antibody 1.5 μg/mL; for 1 h endocytosis (%): MDA-MB-231, 1 h at 37° C.; for 2 h endocytosis (%): MDA-MB-231, 2 h at 37° C.
Experimental: The endocytosis capacity of the anti-CDCP1 humanized antibody was detected with reference to example 5. MDA-MB-231 cells were subjected to digestion with 5 mM EDTA, and plated at 3×10^4 cells/well after cell counting. After adding an Fc blocker and blocking at room temperature for 10 mins, a test antibody (1.5 μg/mL) was added, and the mixture was incubated at 4° C. for 30 mins, centrifuged, and washed twice with PBS+2% FBS, then the cells were divided into three equal portions (labeled as 0 h, 1 h, 2 h), cells labeled as 1 h and 2 h time points were added to 200 μL of cell culture medium, and cultured at 37° C. for 1 h and 2 h, respectively. Cells at 0 h point were centrifuged, a secondary antibody (PE anti-human IgG Fc Antibody, Biolegend, 410708) was added, and the mixture was incubated at 4° C. for 30 mins, centrifuged, and washed twice with PBS+2% FBS, and detection was performed using a flow cytometer. After incubation of cells labeled as 1 h and 2 h points at 37° C. was completed, a secondary antibody was added (in the same steps as those at 0 h point), Geo-MFI of the signal under the same voltage was collected as detection signal at 0 h, and antibody internalization rate was calculated according to the following equation: Internalization (%)=(Geo-MFI (0 h)-Geo-MFI (1, 2 h))/Geo-MFI (0 h)×100%.

Molecule | Internalization MDA-MB-231 (%) 2 h (MDA-MB-231 cells [1]) [%] | Internalization PC3 (%) 2 h (PC3 cells) [%] | further results
B1 | 55.57 | 33.21 | 
B2 | 93.43 | 93.05 | 
B3 | 27.65 | 7.99 | Internalization MDA-MB-231 (%) 0.5 h (MDA-MB-231 cells [1]; MDA-MB-231, 0.5 h at 37° C.): 10.62%; Internalization MDA-MB-231 (%) 1 h (MDA-MB-231 cells [1]; MDA-MB-231, 1 h at 37° C.): 7.08%; Internalization PC3 (%) 0.5 h (PC3 cells; PC3, 0.5 h at 37° C.): 0.00%; Internalization PC3 (%) 1 h (PC3 cells; PC3, 1 h at 37° C.): 0.00%
B4 | 73.58 | 73.92 | 
B5 |  |  | ka (HuCDCP1-C): 152000 M⁻¹ s⁻¹; kd (HuCDCP1-C): 3.93e-05 s⁻¹; 1 h endocytosis (%) (MDA-MB-231 cells [2]): 45.68%; 2 h endocytosis (%) (MDA-MB-231 cells [2]): 68.37%
B6 |  |  | ka (HuCDCP1-C): 148000 M⁻¹ s⁻¹; kd (HuCDCP1-C): 1e-05 s⁻¹; 1 h endocytosis (%) (MDA-MB-231 cells [2]): 51.49%; 2 h endocytosis (%) (MDA-MB-231 cells [2]): 72.98%
B7 | 49.47 | 66.24 | 
B8 | 52.89 | 68.71 | 

Reference: patent publication US20260250410A1, “ANTIBODY AND USE THEREOF” (SICHUAN HUIYU PHARMACEUTICAL CO., LTD., priority 2022, published 2026)
